Experimental findings from a protein production outcome set (Wang et al. 2014) are described below.

This data set can be described thus: label from the status in PepcDB records.
On to “MKMEARQKQNSFTSKMQKIVNHRAFTFTVIALILFNALIVGIETYPRIYADHKWLFYRIDLVLLWIFTIEIAMRFLASNPKSAFFRSSWNWFDFLIVAAGHIFAGAQFVTVLRILRVLRVLRAISVVPSLRRLVDALVMTIPALGNILILMSIFFYIFAVIGTMLFQHVSPEYFGNLQLSLLTLFQVVTLESWASGVMRPIFAEVPWSWLYFVSFVLIGTFIIFNLFIGVIVNNVEKAELTDNEEDGEADGLKQEISALRKDVAELKSLLKQSK”, for which the protein production entry is on record as “failed”.
As for “CMPYRVEIFDTSHHSSSQCVGGMVVYENNAFQKNSYRRYHLKGSDEYTQMSELLTRRALDFAKEPPPNLWVIDGGRAQLNIALEILKSSGSFVEVIAISKEKRDSKAYRSKGGAKDIIHTPSDTFKLLPSDKRLQWVQKLRDESHRYAINFHRSTKLKNMKQI”, the entry is “failed”.
On to “MKADDSRFFSFLKDRIGLDVTSVGEAIIERALRQRAKAANCADSDDYWHLLISSPQEQQALIEAVIVPETWFFRYPESFVTLGMLARERIASLAGVRPLRILSLPCSTGEEPYSIAMALFDAGVDARQFKVDAVDISPVSIAKAVHGIYGKNSFRGSDLSYRERFFSAITDGFEVADEIRACVNFQPGNLLDPKLASQVPYDIVFCRNLVIYFDRPTQQRVFQVLKQLTREDGLLFIGPAEGNLLAGIGMRSIGIAQSFAFRHAPAEAAAPAQVQAAAPIAPRPVVEAPARSPAPTPRPAARTSAAFAPLAKPAAAAGNSEVSALLDTIAGLANEGKSAEARAACERYLQQHEPVAQVFYWLGLLSEVEGAVVQAQGFYRKALYLQPQHRESLAQLAALLAAQGDSAGARRLQDRAARGANKQGNH”, for which the protein production entry is on record as “failed”.
Under “MSFGDTLGLGFMTFAFFLGAGNLIFPPFAGMLAGENMLLAMLGFLITAVGLPLVGLIAVAKAQGKVMAMLPVFAATALAIAIYIIIGPAFAAPRTGLVAYEIGAKPFIDNTTATIMLGSLSLNLSQLIYTLGFFIVTMLLALFPGKLLDSVGKVLTPILLLLLVGLALSVLFLPASEVGVAVGDYKNHPLTKGILEGYNTMDTLASLMFGMLIIDLLRKKGIEQPSAQTKYLIRAAFIAAAGLAFVYVSLFFLGATAGDIAAGAKNGGEILTNYVTREFGSLGTVLLSAVVTLACLTTAVGLVSACSEFFNELMPKLSYRFLVVALSAICALIANVGLSQLINISIPVLMAVYPVAIALVAVTFLTEYFPRPQFAHRAALSVALLFGIFDGMKVAAKSLTGEDGRGITEFAQSFIDFVNGMSPTLSILPLYEEGMAWLLPTLVVIVLCLIIRGSGAKTVSAA” stands “failed”; under “MKRIAFVGSVGAGKTTLFNALQGNYTLARKTLAVEFNDKGDIDTPGEYFSHPRWYHALITTLQDVDMLIYVHGANDPESRLPAGLLDIGVSKRQIAVISKTDMPDADVAATRKLLLETGFEEPIFELNSHDPQSVQQLVDYLASLTKQEEAGEKTHHSELEHHHHHH”, “not failed”.
As to “AEIYNKDGNKVDLYGKAVGLHYFSKGNGENSYGGNGDMTYARLGFKGETQINSDLTGYGQWEYNFQGNNSEGADAQTGNKTRLAFAGLKYADVGSFDYGRNYGVVYDALGYTDMLPEFGGDTAYSDDFFVGRVGGVATYRNSNFFGLVDGLNFAVQYLGKNERDTARRSNGDGVGGSISYEYEGFGIVGAYGAADRTNLQEAQPLGNGKKAEQWATGLKYDANNIYLAANYGETRNATPITNKFTNTSGFANKTQDVLLVAQYQFDFGLRPSIAYTKSKAKDVEGIGDVDLVNYFEVGATYYFNKNMSTYVDYIINQIDSDNKLGVGSDDTVAVGIVYQF”, the protein production result is listed as “not failed”.
Under “METELVTYKEKNVQMSMLEVIGMIGIIFGVMYGIGYLNFLYEFSLYPWYVNHLISPFTFCMIIVMYAPARNYCVQLVKSIQFNHFKHYVTIVMTMIVLLIYLAVLNLVLPHGLGVEGSNIVIEPTKNEIILYVVVLTIFAPIWEELVFRGMFFMKLSQRFSTLSSAVISAFIFTLGHPLTVGSILYIFGIGICLAYTYKKTNNLLVPIGIHVLNNSFNLLVNFQL” stands “failed”; under “MTTSATSGTGPTANSMRRALKRARDGVALDVTEAAVLLQARGEDLDDLTASAARVRDAGLEAAGRAGVITYSKSVFIPLTRLCRDKCHYCTFVTVPGKLRRAGHGMFMSPDEVLDIARKGAALGCKEALITLGDKPEDRWPEAREWLDAHGYDDTIAYVRAISIRILEETGLLPHLNPGVMSWTDFQRLKPVAPSMGMMLETTATRLWSEPGGPHHGSPDKEPAVRLRVLEDAGRSSVPFTSGILIGIGETYEERAESLFALRKISRAYHGIQELIIQNFRAKPDTAMRGMPDAELDELIATVAVARHIMGPRACLQAPPNLVDSEYGRLIGAGIDDWGGVSPLTIDHVNPERPWPQIDLLREQSAQAGFELRERLCVYPEFVQRGEPWLDPRLLPHVRALADPASGLAHADATVEGHPWQEPEEAFVAQGRTDLHHSIDTEGRTGDRRDDFDVVYGDWEALREAAAPGMVPERIDTDVRQALATAANDPTRLTDAEALALLHADGPALDALTRIADDVRKAAVGDDVTYIVTRNINFTNVCYTGCRFCAFAQRRTDADAYTLSLEQVADRAQQAWDVGAVEVCMQGGIHPDLPGTAYFDIAKAVKERVPGMHVHAFSPMEVVNGATRTGLSIREWLTAAKEAGLDSIPGTAAEILDDEVRWVLTKGKLPTATWIEVITTAHELGIRSSSTMMYGHVDQPRHWLGHFRTLARIQQQTGGFTEFVTLPFIHTNAPVYLAGIARPGPTTRDNRAVMAMARLLLHPHIPNIQTSWVKLGTEGAAEMLRSGANDLGGTLMEETISRMAGSSYGSYKSVKDLIAVAEAAGRPAKPRTTLYGEVPQERQRAAAASDGHLPELLPVLD”, “failed”.
As for “LRKMIALIHKDYAKNLRLETLASVFNYNRAYLGKLFKNYTGEYFNTYLDKVRIENGKRLLQKGYKVYEVAEKIGYANVDYFHRKFKKYVGVSPSTFRKR”, the entry is “not failed”.
Under “MAVNVYSTSVTSENLSRHDMLAWVNDSLHLNYTKIEQLCSGAAYCQFMDMLFPGCVHLRKVKFQAKLEHEYIHNFKVLQAAFKKMGVDKIIPVEKLVKGKFQDNFEFIQWFKKFFDANYDGKDYNPLLARQGQDVAPPPNPGDQIF” stands “not failed”.
“LELLEALSLPVWIFDIDHRRVFWANEAALQVWGAGSLLELQTRDMARDMSVSVAQRLAQYQQDFEREGASFVESWTLYPNGRPSVLKVKFRGIRVNGRMLMFCEAQN”: the protein production entry is on record as “failed”.
As for “MFTPGNVLSWATFFPVIGSALIVVLLAAKFFLRLDKKLVDDGSRWIALVTSALSFAAAIAAWRMYDPSATGVQLVQHFTWIRAFNIEFYFGVDGISISMVLLSGLISFIATIASMPWWSGKKDAEMAGMVDDGHEDPHHPKHFSVRMVPGYMAMLLLLQTGMMGTFVALDMFLFYVFWEIMLLPMYFLIGIWGGPRKEYAAIKFFLYTLAGSVLMLLAIIGIYYNSAPAQLADGSWSSGHTFNLIELAKQGAAGQFRNAAPILGFSFAKIVFIGLFIGFAIKIPMFPFHTWLPDAHVEAPTPISVILAGVLLKMGIYGILRFNYGILPDATAWAAGAIAVFGVINIIYAAFVCLAQKDLKKLIAYSSVSHMGFSLLGMAAMTPQGISGAVLNLFTHGIISPMLFLIVGVIYDRAHHREIEKFGGLAQELPEYSAIMGLAFFASLGLPGLAGFISEFTVFSGAFPVFTTYTIISATSVVLTAAYYLWAIHRMFLGKLNPVYKGYPDLNWRERMSLYPLAVICIYLGFYPQAILGVINPALHALIQNIKPL”, the entry is “failed”; as for “MDHDKTGCQSPPEGPKLCTNNCGFFGSAATMNMCSKCHKDMLFQQEQGAKFASAVSGTSSSSNIIKETFTAALVDIETKSVEPMTVSVQPSSVQVVAEVVAPEEAAKPKGPSRCTTCNKRVGLTGFKCRCGSLFCGTHRYADVHDCSFNYHAAAQEAIAKANPVVKAEKLDKI”, “failed”.
As for “SQLISADGKVFGSYAHSGDNRIYTRYNEISPDLIKALIATEDVRFRKHSGIDSKGLFRAVVKRGILNQKSGGGGSTITQQLAKLLYSPRTETKLGRLFQKPIEWVIAVKLERFYTKEEIITMYLNYFDFLYNAVGIKSAAYTYFGKQPADLKIEEAAVLVGMCKNPAYYNPVLHG”, the entry is “failed”; as for “MSTATLPHTVGKRLFRQTLLLALALSVVFSAVFTVVEYYRSKVSLNESVELLKKTHLDAITAALWSLDRQQIAAQIDGIHHYPFISYVAVVDQGGVVVESGTRSELFGDVRRIDLTATYNGRQVSLGSLYLEIDRQAIMRDALSTAAVTLLFQTLTITIVMLFTFMLFERQVTRHLAAAADYFTSFGFARVQQPLQLDKHRYGDEIDALVEAFNRMRESLAVAYQQQQGMLQAVRESEALLRAIARRIPNGGVWVVDTDGRYIMFEGSLVESLGLSGQEALGRMPGDLFGEPLADRLVGCYRLALAGGTLSEEIEYRERVLWIQFAPLEDEHGAVMAAVALGIDVTERRQAEAERREMLQRLGQAHKMEAVGRLAGGIAHDYNNKLTVILGYAHVLKLTGFQSKEAPEQLDQIIRAAEHSRDITRQLLAFTRSERVNPVRVDLNRLISQSSKSLTRLIGEDITLSHVAGADLWPVRIDPTQADQLLMNLVMNARDAIAGTGSVTIATSNVVLDRATVRHLQGASPGEYVLMTVSDTGCGMDPEVMEHIFEPFYTTKEMGKGTGLGLATVYGIVRQNGGAISVESEPGGGSVFSIYLPRFVGESHDVRRLGEVDETLPARTTLLVDDDDAVRDITALMLRRLGHTVITASDPDEAIHLCQQPGIVVDLILTDVIMPSMNGREMVRSILSHQKAAKVLYMSGYPADVVEGRGAVDADARLLSRLLKLK”, “failed”; as for “MSVNGAFSPCVVIPCYNHGAMMASVLVRLAPLALPVFIVDDGSDAATQHVLNLLAAENDGVTLIRLANNSGKGAAVMRGIEAVAQAGFSHALQVDADGQHQIEDAPLLLDEAKTHPDCLISGRPRYDDSVPKSRLYGRYVTHVWVWIETLSLSIKDSMCGFRVYPVAATVSLLSRKSLGRRMDFDTEIMVRLYWAGTPSRFIETAVTYPENGLSHFDALHDNLRISWMHTRLFFGMLPRIPVLLMRQRQQHWAGVSERKGLLGMRFMLAVYQRLGRGVFTLFLWPVIAFYWLTGRTARKASQSWLRQIGEYAHQQDILLPKPLNSYHHFLRFGQAMLDKIASWRGDLHWGRDIDFAPGAQEAIEHGRQKGQLILASHLGDIEVCRALAPQVSGLVINALVFTENSQRFKQVLEEIAPQAGVNLIPVSNIGPDTAIMLQQKLDAGEWVAIVGDRTAVHRQRGGVRRVVWSPFLGKEAPFPQGPFVLAAALRCPVLLMFVIREQKKLRVYCEPFADSITLPRPTRQQALQQVVDRYAERLAHYALKSPLDWFNFFDFWSLPDDDGRTAGKKESLEHHHHHH”, “failed”.
Under “MDFDLWWLLAIPLVFGLGWVAARLDARQLLTEQASLPRSYFKGLNFLLNEQPDKAIDAFIEVARLDPETTELHFALGSLFRRRGETERAIRVHQNLVNRPDLPANERDHALYELGQDFLRAGLLDRAEESLRMLMEGVFAEPAKRVLLELYEVEKEWRKAIDAARELQTLQGQDYSVQIAQFCCELAQESLQRKDVSAAVEWLERALQENPKNVRATIQLGDVALGKGDTEGAIKRWRSIEQQNPAFLPLVAERLMKAYAQLGRAAEGLAWLRSKMDARLGPELLDVVYRYELDVHGIDDAVALMREQIRRQPSLMALTRLVEAEATRASEAVSHEAAAVAAPISDSALADPVEAGSNADIQRAQDLGAIRDLLQSRTRNLARYTCQECGFRARLFYWQCPGCNRWETYAPRRTEALGGSGGASM” stands “failed”; under “MTNIQALFERIAPLYDRLNDQLSFGLHHVWKQMAVDWLELPQGATALDLCCGTGDLTRLLARRVGRQGRVVGLDFAAAPLAIARQRSDHYPQIEWLQGDALAVPFAPQTFQGITIGYGLRNVVDIPQALREMFRLLVPGGRAAILDFSHPQTSALEQFQQWYLQQWVVPTARHYGLAAEYDYLWPSIQAFPTPPTLCALIQQAGFERVKHYPLLGGLMAITVAQKLEHHHHHH”, “failed”.
